Measurements from patent publication US20260209387A1, “SINGLE-DOMAIN ANTIBODY FOR INHIBITION OF NEUTROPHIL ELASTASE ACTIVITY” (UNIVERSITE DE LIEGE, priority 2023, published 2026).

Key:
hNE = biological target: T1, hNE (Homo sapiens, UniProt P08246); test: Stability of NbE201 towards hNE (SDS-PAGE, 37° C.); format: in vitro ADME
T1 construct: purchased Elastin Products Company (EPC)
T1 sequence (P08246 30-247): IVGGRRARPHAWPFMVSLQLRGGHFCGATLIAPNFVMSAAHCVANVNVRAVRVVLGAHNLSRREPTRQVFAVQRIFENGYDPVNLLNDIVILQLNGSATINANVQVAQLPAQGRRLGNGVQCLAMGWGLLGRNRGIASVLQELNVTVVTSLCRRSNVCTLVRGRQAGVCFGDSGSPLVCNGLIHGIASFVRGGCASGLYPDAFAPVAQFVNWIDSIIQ
Procedure: NbE201 (26.4 μM) was incubated at 37° C. alone or in the presence of hNE ([NbE201]: [hNE]=4:1). Aliquots (10 μL) taken at different time intervals were mixed with 4 μL of sample loading buffer (Tris-HCl (pH 6.8), SDS denaturant (4%, % w/v), β-mercaptoethanol (5%, % v/v), bromophenol blue (0.01%, % w/v), glycerol (20%, % v/v), H2O)) and then stored at −20° C. until analysis by SDS-PAGE using 4-20% Mini-PROTEAN TGX Protein Gel, 10 wells, 50 μL (Bio-Rad, Germany). Then, the gel was stained by Coomassie blue, destained in water and imaged using a Gel Doc EZ Imager (Biorad). The relative amount of intact protein was quantified by densitometry analysis with a Gel Doc EZ Imager program using the intensity of the band at time zero as the relative standard. hNE alone was incubated on similar conditions and an aliquot was taken at different time points to measure its activity using N-Succinyl-Ala-Ala-Ala-paraNitroAnilide as substrate as describe above.

[1] = Heat-induced unfolding by far UV-CD at 206 nm; format: physicochemical; details: far UV-CD 206 nm; average of three batches; pH 7
Procedure: 1.12.1. Preparation of the samples and measurements. Samples of NbE201 in 0.05 M NaP buffer pH 7 were prepared at a protein concentration of 0.2 mg mL-1. All the experiments were carried out in 1 mm quartz cell and a JASCO J-810 CD spectrophotometer equipped with a Peltier cell-holder. Mineral oil was added on the top of the sample to avoid sample evaporation. The CD spectrum of the native and denatured states of the protein were recorded from 190 nm to 260 nm at 25° C. and at 97° C. 61 data points were recorded with a 1 nm data interval, a data pitch of 0.1 nm, 2 s integration time, a bandwidth of 1 nm and a scanning speed of 50 nm/min. Heat-induced unfolding was monitored by far UV-CD at 206 nm. […] Data were acquired with a reading frequency of 0.05 s^−1 using a 4 s integration time and a 1 nm bandwidth. […]
1.12.2. […] The transition curves obtained were analyzed based on a two-state (N ? U) model and Equation 1 where x is the temperature during the analysis and a=−(ΔHm (1−x/Tm))/RT (doi: 10.1016/j.jmb.2008.11.046), and yobs is the CD signal at 206 nm at a given temperature (x), and YN and YU are the values of these signals for the native and denatured states, respectively at 273K. p and q are the slopes of the pre- and post-transition baselines, respectively, R is the gas constant, and T is the absolute temperature. […]

B1: NbE201: anti-hNE ISVD (VHH/nanobody) from immunized lama, amino acid sequence SEQ ID NO: 4 (protein)
VHH: QVQLQESGGGLVQAGGSLRLSCVVPGRTISLYRMGWFRQAPGKEREFVAGINWSGDMTDYVDSVKGRFTISRDNAKNTVYLEMNSLKPEDTAIYYCTADPKLLPLADSSYGYWGQGTQVTVSS
In the case of B1, the “time NbE201 is stable in presence of hNE” value (hNE; 37° C., [NbE201]:[hNE] 4:1) is reported as 14 days, the “percentage of remaining complex (intact NbE201) over time” value (hNE; in presence of hNE, [NbE201]:[hNE] 4:1, 37° C., 14 days) is reported as “around 100%” and the “apparent temperature of unfolding (Tm^app)” value [1] is reported as 70.7±1.5 °C.
